{
  "source": "paper PMC5940917",
  "key": {"[1]": {"target": "rat ASIC1a/2a heteromeric channel stably expressed in CHO cells (rat) (UniProt P55926)", "sequence (P55926 whole entry, chain 1 of 2)": "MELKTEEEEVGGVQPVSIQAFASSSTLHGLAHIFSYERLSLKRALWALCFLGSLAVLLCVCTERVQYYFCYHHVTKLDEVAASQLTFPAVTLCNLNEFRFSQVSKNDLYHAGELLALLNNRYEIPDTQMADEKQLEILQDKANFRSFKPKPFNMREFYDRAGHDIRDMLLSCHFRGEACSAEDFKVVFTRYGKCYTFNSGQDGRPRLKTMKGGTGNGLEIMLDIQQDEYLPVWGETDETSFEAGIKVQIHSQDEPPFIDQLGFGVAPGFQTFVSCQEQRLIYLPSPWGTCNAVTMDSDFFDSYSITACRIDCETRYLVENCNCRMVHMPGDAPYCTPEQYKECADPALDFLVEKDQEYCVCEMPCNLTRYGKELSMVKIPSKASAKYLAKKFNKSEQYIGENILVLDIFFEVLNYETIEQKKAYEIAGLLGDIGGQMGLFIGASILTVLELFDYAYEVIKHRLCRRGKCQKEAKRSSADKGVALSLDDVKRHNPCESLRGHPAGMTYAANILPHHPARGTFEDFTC", "sequence (P55926 other isoform, or with tags, fused parts or gaps, chain 2 of 2)": "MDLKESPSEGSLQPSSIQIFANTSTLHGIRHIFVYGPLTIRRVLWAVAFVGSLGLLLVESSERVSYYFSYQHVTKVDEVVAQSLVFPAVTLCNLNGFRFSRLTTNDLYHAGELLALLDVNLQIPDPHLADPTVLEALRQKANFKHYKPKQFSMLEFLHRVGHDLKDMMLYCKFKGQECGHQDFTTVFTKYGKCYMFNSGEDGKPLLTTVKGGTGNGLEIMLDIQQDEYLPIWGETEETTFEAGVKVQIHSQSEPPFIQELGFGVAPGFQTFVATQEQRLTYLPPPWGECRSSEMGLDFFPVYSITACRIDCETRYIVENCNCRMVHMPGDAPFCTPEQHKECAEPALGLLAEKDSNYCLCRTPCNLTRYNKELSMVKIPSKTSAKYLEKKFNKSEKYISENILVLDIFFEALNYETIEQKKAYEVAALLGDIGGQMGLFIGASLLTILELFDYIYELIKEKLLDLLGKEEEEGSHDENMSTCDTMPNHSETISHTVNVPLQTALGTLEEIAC"}, "[2]": {"target": "rat ASIC1a/2a heteromeric channel stably expressed in CHO cells (rat) (UniProt P55926)", "remark": "listed apart in the source"}, "[3]": {"target": "rat ASIC1a/2a heteromeric channel stably expressed in CHO cells (rat) (UniProt P55926)", "remark": "listed apart in the source"}},
  "data": [
    {"substance": "Psalmotoxin (PcTx1) (from UniProt P60514 1-40) (peptide)", "values": [
      {"measurement": "threshold concentration of PcTx1 for potentiation of pH6.8-induced responses at conditioning pH 7.4 (wash-off experiments; CHO cells, rat and mouse cortical neurons)", "setting": "[1]", "value": "< 10", "unit": "nM"},
      {"measurement": "current clamp on CHO cells: potentiation of pH6.8-induced membrane depolarization at conditioning pH 7.4, 1-300 nM PcTx1", "setting": "[2]", "value": 56.1, "unit": "nM"},
      {"measurement": "whole-cell patch clamp on CHO cells: potentiation of pH6.8-induced current at conditioning pH 7.4, 1-300 nM PcTx1", "setting": "[2]", "value": 124, "unit": "nM"},
      {"measurement": "whole-cell patch clamp on CHO cells: inhibition of pH6.0-induced current at conditioning pH 7.0, 1-300 nM PcTx1 (inhibition incomplete, plateau ~75%)", "setting": "[3]", "value": 2.9, "unit": "nM"}
    ]}
  ]
}
